Results from patent US20250387497A1 (PURDUE RESEARCH FOUNDATION, published 2025).
Where “and” joins values, the source holds several entries; their conditions need not be identical. Identical values can stand only once.

T1: fibroblast growth factor receptor 3 (FGFR3)
T1 chain: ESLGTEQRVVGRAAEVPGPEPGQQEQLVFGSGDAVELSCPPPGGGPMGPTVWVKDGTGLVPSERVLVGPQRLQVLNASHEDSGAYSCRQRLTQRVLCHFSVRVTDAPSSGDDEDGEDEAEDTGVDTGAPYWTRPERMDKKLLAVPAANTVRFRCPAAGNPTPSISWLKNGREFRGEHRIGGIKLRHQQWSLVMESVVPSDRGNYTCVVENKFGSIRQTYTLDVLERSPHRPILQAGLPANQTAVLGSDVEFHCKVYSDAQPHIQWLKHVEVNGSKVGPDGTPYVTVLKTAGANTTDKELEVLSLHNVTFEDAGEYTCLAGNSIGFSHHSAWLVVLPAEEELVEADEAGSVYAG


Legend:
[1] = biological target: T1, fibroblast growth factor receptor 3 …; experiment: binding affinity, method not stated
[2] = biological target: interleukin-4 receptor alpha (IL-4Rα); experiment: binding affinity, method not stated
Sequence of interleukin-4 receptor alpha (IL-4Rα) (chain, as listed by the source): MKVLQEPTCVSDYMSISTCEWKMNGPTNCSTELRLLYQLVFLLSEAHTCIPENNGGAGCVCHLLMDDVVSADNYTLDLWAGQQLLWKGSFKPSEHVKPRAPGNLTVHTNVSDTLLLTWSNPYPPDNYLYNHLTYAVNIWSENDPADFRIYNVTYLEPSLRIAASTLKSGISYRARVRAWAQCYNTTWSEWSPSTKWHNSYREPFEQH

Row | Binder | Kd [1] | Kd [2]
1 | VSPPLTLGQLLS [peptide "F", binding motif for FGFR3, VSPPLTLGQLLS] | ~1 µM and 1 µM | –
2 | KLAKLAKKLAKLAK [peptide "I", binding motif for IL-4Rα, KLAKLAKKLAKLAK] | – | < 60 µM and 55.9 µM
